Starred links: 1 amine or outer side, 2 acyl side, 3 side chain; linkers in the order of their positions; H or OH if unused. Residues, ends and D or L forms follow the SMILES beside them. *: point of attachment. Doxorubicin(3'-N) = COc1cccc2c1C(=O)c1c(O)c3c(c(O)c1C2=O)C[C@@](O)(C(=O)CO)C[C@@H]3O[C@H]1C[C@H](N*)[C@H](O)[C@H](C)O1; Suc = O=C(CCC(=O)[*:2])[*:1]
Columns and labels:
[1] = biological target: T1, matrix metalloproteinase‐2 (MMP‐2) (Homo sapiens, UniProt P08253); assay: MMPs-responsive cleavage of DOX-P18 by MMP-2 (HPLC, MS, fluorescence); assay type: in vitro ADME; conditions: 1 mg mL^−1 DOX-P18 with 1 µg mL^−1 MMP-2, 37 °C; HPLC at 6, 12, 24, 72 h, monitored at 500 nm; product DOX-P3 identified by MS
T1 construct: purchased Novoprotein Scientific Inc. (Shanghai, China)
T1 sequence (P08253 110-660): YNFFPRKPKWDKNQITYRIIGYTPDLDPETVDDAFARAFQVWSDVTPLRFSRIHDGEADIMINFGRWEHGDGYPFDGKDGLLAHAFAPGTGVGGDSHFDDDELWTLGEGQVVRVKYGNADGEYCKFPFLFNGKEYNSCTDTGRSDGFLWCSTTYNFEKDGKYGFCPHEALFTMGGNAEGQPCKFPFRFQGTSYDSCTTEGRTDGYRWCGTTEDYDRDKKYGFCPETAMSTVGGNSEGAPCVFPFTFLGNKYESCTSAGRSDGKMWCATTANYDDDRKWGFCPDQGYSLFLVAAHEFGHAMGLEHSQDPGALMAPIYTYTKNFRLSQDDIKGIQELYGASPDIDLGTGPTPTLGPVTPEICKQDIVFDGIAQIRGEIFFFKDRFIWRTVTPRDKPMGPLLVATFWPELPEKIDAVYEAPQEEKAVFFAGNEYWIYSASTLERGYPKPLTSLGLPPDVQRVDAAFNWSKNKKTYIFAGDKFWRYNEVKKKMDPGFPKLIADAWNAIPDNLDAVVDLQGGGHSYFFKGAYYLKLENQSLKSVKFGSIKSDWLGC
Procedure: (§1) The enzymatic reaction process was monitored by HPLC at 6, 12, 24, and 72 h.
(§2) Doxorubicin hydrochloride (DOX·HCl), trifluoroacetic acid (TFA), and anhydrous N,N-Dimethylformamide (DMF) were purchased from Aladdin (Shanghai, China).
(§3) Thioanisole (TA), 1,2-ethanedithiol (EDT), and phenol were obtained from Macklin (Shanghai, China). 4-methylmorpholine (NMM), N,N’-diisopropylcarbodiimide (DIC), and 1-hydroxybenzotriazole (HOBt) were purchased from OKA (Beijing, China). Rink amide methylbenzhydrylamine (MBHA) resin, Wang resin and all Fmoc-protected amino acids were obtained from NJPeptide (Nanjing, China). Ethanol, diethyl ether, acetonitrile (ACN), and methanol were purchased from Sinopharm Chemical Reagent Co., Ltd (Shanghai, China). Piperidine, p-nitrophenol, and succinic anhydride (Succ) were obtained from Sigma-Aldrich (Shanghai, China). Recombinant human matrix metalloproteinase-2 (MMP-2) and matrix metalloproteinase-9 (MMP-9) produced by Novoprotein Scientific Inc. (Shanghai, China) are supplied as a 0.2 μm filtered buffer mixture of 20 mM Tris-HCl, 2 mM CaCl2, 150 mM NaCl, 0.05 % Brij 35 (w/v), pH 7.5, and their specific activity is >1300 pmol/min/µg as measured under the described conditions. All commercial reagents and HPLC solvents were used with […]

[2] = biological target: T2, matrix metalloproteinase‐9 (MMP‐9) (Homo sapiens, UniProt P14780); assay: MMPs-responsive cleavage of DOX-P18 by MMP-9 (HPLC, MS, fluorescence); assay type: in vitro ADME
T2 construct: purchased Novoprotein Scientific Inc. (Shanghai, China)
Procedure: as §1, §2, §3

MDA‐MB‐231 cells = assay: CCK-8 cell viability assay, MDA-MB-231; assay type: cell-based, human; conditions: MDA-MB-231, 36 and 48 h versus 24 h
Procedure: (§4) MDA‐MB‐231 cells were incubated in 96‐well plates for 24 h (1 × 10^4 cells per well). […] At the appointed time, 10 µL CCK‐8 solution was dropped into each well and further co‐incubated with treated cells for 2 h. The absorbance values at 450 nm were measured by an automated plate reader (iMark (168‐1130), Biorad, USA). The IC50 values were obtained from Microsoft Excel's FORECAST formula.

MCF‐10A cells = assay: CCK-8 cell viability assay, MCF-10A; assay type: cell-based, human; conditions: 24 h
Procedure: as §4
mammary epithelial cell line MCF-10A after 24 h incubation. Data are presented as
means ± standard deviations (n = 3).
(1 picture or pasted object on this page, not shown here)

healthy ICR mice = assay: Maximum tolerated dose / acute toxicity study
Description: Animal survival of each group (n = 10, 5 female and 5 male) was continuously recorded for 14 days. Eventually, the evaluation and calculation of the median lethal dose (LD50) were completed with these collected data using the Bliss rule.

[3] = system: MDA‐MB‐231 tumor‐bearing BALB/c nude mice; assay: Biodistribution by ex vivo fluorescence imaging; assay type: in vivo, mouse; conditions: single i.v. injection, ex vivo fluorescence 2-12 h
Procedure: At 2, 4, 6, 8, 10, and 12 h post‐injection, the major organs and tumor were taken out and fluorescence signals were captured by IVIS.

[4] = system: MDA‐MB‐231 xenograft model; assay: In vivo antitumor evaluation, MDA-MB-231 xenograft; design: species or system mouse
Description: All the animal experimental procedures were recognized and approved by the Regional Ethics Committee for Animal Experiments at Ningbo University, China (Permit NO. SYXK (Zhe) 2019‐0005). The triple‐negative breast cancer (TNBC) xenograft tumors were established on female BALB/c nude mice (≈15 g) by subcutaneous injection of MDA‐MB‐231 cells (5 × 10^6 cells in each mouse). TNBC metastasis models were constructed by injecting MDA‐MB‐231‐luc cells (1 × 10^5 cells in each mouse) through the tail vein to female BALB/c nude mice. The day that MDA‐MB‐231‐luc was injected was set as D0. In vivo imaging system (IVIS) (Lumina XRMS Ш, PerkinElmer, USA) was utilized to identify the tumor metastasis at D12.
When the tumor volume of BALB/c mice reached ≈70 mm^3 (V = L × W × W/2), the tumor‐bearing mice were randomly divided into seven groups (n = 5 for each group). […] 100 µL drug was injected intravenously through the tail vein every other day for a total of five times. The day that the first injection was given was set as D0. Tumor size and mouse weight were measured every 2 days from the day that treatment started until D26.

T2 sequence (P14780 94-707): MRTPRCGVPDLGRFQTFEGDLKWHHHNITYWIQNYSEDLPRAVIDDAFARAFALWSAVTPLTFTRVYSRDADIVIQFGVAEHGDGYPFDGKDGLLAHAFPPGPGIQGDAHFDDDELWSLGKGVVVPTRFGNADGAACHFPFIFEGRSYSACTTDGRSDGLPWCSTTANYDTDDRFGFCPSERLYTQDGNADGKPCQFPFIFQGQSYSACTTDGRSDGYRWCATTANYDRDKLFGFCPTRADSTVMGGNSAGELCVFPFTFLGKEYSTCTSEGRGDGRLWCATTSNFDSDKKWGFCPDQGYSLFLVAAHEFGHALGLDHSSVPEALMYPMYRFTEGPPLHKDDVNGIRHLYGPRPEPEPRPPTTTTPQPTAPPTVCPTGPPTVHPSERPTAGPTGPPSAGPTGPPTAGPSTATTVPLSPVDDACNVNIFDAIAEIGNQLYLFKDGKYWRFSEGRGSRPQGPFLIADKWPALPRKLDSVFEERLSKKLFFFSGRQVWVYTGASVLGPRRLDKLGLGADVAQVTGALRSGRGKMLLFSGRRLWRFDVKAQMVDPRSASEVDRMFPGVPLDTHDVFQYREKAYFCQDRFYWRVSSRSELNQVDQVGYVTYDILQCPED

SMILES: CC[C@H](C)[C@H](NC(=O)[C@@H]1CCCN1C(=O)[C@H](CC(N)=O)NC(=O)[C@H](CC(N)=O)NC(=O)[C@H](Cc1ccc(O)cc1)NC(=O)[C@H](Cc1c[nH]cn1)NC(=O)[C@H](CCCNC(=N)N)NC(=O)CNC(=O)[C@H](CCCNC(=N)N)NC(=O)[C@@H](NC(=O)CNC(=O)[C@H](CC(C)C)NC(=O)[C@@H]1CCCN1C(=O)CCC(=O)N[C@H]1C[C@H](O[C@H]2C[C@](O)(C(=O)CO)Cc3c(O)c4c(c(O)c32)C(=O)c2c(OC)cccc2C4=O)O[C@@H](C)[C@H]1O)C(C)C)C(=O)N[C@@H](Cc1c[nH]c2ccccc12)C(=O)N[C@@H](CCCNC(=N)N)C(=O)N[C@@H](CCC(N)=O)C(=O)N[C@@H](CCCNC(=N)N)C(=O)N[C@@H](Cc1ccc(O)cc1)C(N)=O [DOX‐P18] ({Doxorubicin(3'-N)-Suc}-PLGVRGRHYNNPIWRQRY-NH2)
- Enzymatic cleavage by MMP-2 [1]: efficiently cleaved
- Cleavage efficiency of MMP-9 relative to MMP-2 ([2]; 0.1 µg mL^−1 MMP-2 or MMP-9, 20 µg mL^−1 DOX-P18, 12 and 24 h, fluorescence intensity at 592 nm (Ex 488 nm)): about 10 times
- Enzymatic cleavage by MMP-9 ([2]; 1 mg mL^−1 DOX-P18 with 1 µg mL^−1 MMP-9, 37 °C, HPLC at 6, 12, 24, 72 h, monitored at 500 nm, product DOX-P3 identified by MS): efficiently cleaved
- IC50 with extended incubation time (MDA‐MB‐231 cells): further reduced
- IC50 (cytotoxicity), in words (MCF‐10A cells): higher
- Histological analysis of major organs (healthy ICR mice; 14 days after single dose, 40 mg kg^−1 DOX (or DOX equivalent)): no significant differences in major organs
- Blood routine indexes (healthy ICR mice; 14 days after single injection, n = 3, DOX: WBC, PLT, PCT at 10 mg kg^−1, DOX-P18: all indexes, different doses): not significantly different
- Improvement of biosafety (LD50 versus DOX) (healthy ICR mice; LD50 in DOX equivalents versus free DOX): 67.8%
- Single-dose median lethal dose (LD50) (healthy ICR mice; single intravenous dose, 14 days, n = 10 per group, Bliss rule): 221.5 mg/kg
- Time of highest content in tissues [3]: 6 h
- Death / body weight in tumor-bearing mice ([4]; MDA-MB-231 tumor-bearing nude mice, DOX-P18 up to 100 mg kg^−1 (20 mg kg^−1 DOX), DOX at 10 and 20 mg kg^−1): no death or obvious weight losses
- Tumor growth inhibition ([4]; MDA-MB-231 xenograft, 100 mg kg^−1 (equivalent to 20 mg kg^−1 DOX) i.v. every other day, five times, n = 5): significant inhibitory efficacy
- Histological analysis of major organs after treatment ([4]; MDA-MB-231 xenograft, 24 days, five administrations, 5 mg kg^−1 DOX or DOX equivalent): without obvious lesions in other organs
